The numbers were not newly measured in US9932367B2, “Modification of polypeptides” (BicycleRD Limited, priority 2013, dated 2018), which cites them from elsewhere.

Starred links: 1 amine or outer side, 2 acyl side, 3 side chain; linkers in the order of their positions; H or OH if unused. Positions of bridges follow the written chain, without caps; N, C: chain ends. TBMB = c1c(C[*:1])cc(C[*:3])cc1C[*:2]

Usually Ki stands for the equilibrium dissociation constant of an inhibitor or competing ligand from its target.

One data set concerns the target human PK (hPK) (Homo sapiens, UniProt P03952).
In the next data set the target is rat PK (Rattus norvegicus, UniProt P14272). The following applies: highest concentration tested (10 μM).
The target in the next data set is factor XIa (hfXIa) (Homo sapiens, UniProt P03951). The following applies: highest concentration tested (10 μM).
Another data set concerns the target thrombin (Homo sapiens, UniProt P00734). Conditions: highest concentration tested (10 μM).

Chain of human PK (hPK) (P03952 391-638 limits assumed): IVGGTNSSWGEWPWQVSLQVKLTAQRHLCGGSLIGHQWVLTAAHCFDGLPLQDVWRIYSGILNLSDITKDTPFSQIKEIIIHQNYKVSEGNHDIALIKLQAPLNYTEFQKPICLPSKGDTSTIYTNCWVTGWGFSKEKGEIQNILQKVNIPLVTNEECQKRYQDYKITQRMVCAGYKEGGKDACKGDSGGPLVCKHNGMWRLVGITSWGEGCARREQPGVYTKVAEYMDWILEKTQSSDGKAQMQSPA
Chain of human PK (hPK) (P03952 20-390 partner limits assumed): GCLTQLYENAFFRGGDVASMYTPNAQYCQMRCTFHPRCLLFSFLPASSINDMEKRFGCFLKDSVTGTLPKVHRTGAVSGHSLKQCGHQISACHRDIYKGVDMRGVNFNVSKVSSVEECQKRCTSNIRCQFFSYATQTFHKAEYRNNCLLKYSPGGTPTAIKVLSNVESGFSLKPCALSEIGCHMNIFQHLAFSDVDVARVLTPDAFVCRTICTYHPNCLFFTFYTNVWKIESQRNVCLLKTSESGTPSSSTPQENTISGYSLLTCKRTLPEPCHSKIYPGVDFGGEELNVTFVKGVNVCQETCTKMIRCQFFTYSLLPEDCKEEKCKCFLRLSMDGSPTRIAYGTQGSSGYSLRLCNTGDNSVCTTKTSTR
Chain of factor XIa (hfXIa) (P03951 388-625 limits assumed): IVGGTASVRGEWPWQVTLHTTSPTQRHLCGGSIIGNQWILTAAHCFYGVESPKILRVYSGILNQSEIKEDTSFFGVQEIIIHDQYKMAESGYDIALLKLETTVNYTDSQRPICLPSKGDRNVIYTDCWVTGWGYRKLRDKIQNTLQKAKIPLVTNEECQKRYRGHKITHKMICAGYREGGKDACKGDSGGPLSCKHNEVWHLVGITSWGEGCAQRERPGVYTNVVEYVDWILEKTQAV
Chain of factor XIa (hfXIa) (P03951 19-387 partner limits assumed): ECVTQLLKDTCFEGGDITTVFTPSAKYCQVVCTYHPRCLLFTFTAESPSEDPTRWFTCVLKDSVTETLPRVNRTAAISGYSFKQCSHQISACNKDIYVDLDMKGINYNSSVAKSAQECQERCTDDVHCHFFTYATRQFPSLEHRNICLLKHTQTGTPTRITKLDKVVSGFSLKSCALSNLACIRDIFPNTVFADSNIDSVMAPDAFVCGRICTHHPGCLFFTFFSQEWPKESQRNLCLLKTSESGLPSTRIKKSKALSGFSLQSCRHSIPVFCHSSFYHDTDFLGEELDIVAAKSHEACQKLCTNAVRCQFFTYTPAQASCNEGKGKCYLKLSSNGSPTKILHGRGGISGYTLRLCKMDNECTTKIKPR
Chain of rat PK (P14272 20-638): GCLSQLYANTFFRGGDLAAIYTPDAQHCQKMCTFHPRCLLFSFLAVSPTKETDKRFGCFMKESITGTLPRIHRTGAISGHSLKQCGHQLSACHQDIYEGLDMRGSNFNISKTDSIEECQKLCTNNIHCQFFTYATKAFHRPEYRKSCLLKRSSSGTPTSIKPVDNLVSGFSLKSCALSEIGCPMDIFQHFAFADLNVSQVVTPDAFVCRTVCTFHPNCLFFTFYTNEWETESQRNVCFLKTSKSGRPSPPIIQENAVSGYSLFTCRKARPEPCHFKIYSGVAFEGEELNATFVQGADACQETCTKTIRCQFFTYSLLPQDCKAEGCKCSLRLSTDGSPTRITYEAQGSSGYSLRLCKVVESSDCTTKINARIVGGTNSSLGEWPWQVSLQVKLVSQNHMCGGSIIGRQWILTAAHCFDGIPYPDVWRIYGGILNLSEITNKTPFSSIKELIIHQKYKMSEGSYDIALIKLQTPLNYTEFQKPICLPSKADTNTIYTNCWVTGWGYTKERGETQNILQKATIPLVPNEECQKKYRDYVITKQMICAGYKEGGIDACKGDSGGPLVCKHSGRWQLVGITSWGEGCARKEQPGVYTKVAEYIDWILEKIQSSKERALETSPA

As to “three cysteines containing peptide (H-ACSDRFRNCPADEALCG-NH2) (SEQ ID NO: 18) coupled with TBMB; inhibitor of human plasma kallikrein (linker 2-9-16 via TBMB) [PK15]”, in the data set with human PK (hPK), the Ki is 3 nM. For the same substance, in the data set with rat PK, the “inhibition of rat PK” value is reported as “did not inhibit”. The “inhibition of human factor XIa” value in the data set with factor XIa (hfXIa) is recorded as “did not inhibit”. In addition, in the data set with thrombin, the inhibition of thrombin result is given as “did not inhibit”.
